Assay results: patent publication US10487147B2, “Anti-PD-L1 antibodies and uses thereof” (Merck Patent GmbH, priority 2011, dated 2019)

Experiments:
[1] = tested on: MC38 colon carcinoma cells; assay: Combination with low dose cyclophosphamide in MC38 subcutaneous tumor model; assay type: in vivo, mice; conditions: CPA 100 mg/kg or A09-246-2 100 μg
Experimental: Low-dose CPA is known to enhance anti-tumor immune responses through the inhibition of immunosuppressive regulatory T cells. […] Mice were inoculated […] in the right flank with 1×10^6 MC38 colon carcinoma cells. When tumors reached a mean volume of ˜50 mm^3, mice were sorted into treatment groups (N=14) on day 0. […] Using an ELISPOT assay, the effects of treatment on the magnitude of CD8^+ T cell responses directed against the well-characterized p15E tumor antigen were measured.

[2] = tested on: PANC02 cells; assay: Combination with Gemcitabine in the PANC02 orthotopic model; conditions: GEM 150 mg/kg or A09-246-2 400 μg per mouse alone
[3] = Fluorescence monitored thermal unfolding assay of wild type and mutant PD-L1 proteins; assay type: physicochemical; conditions: temperature midpoint of fluorescently monitored thermal denaturation of the PD-L1 antigen protein
Text: As the temperature increases, thermal denaturation of the protein exposes the hydrophobic core residues and this can be monitored by an increase in fluorescence of the dye. […] The data ware fit to equation 1 (adapted from Bullock, A. N. et al. Thermodynamic stability of wild-type and mutant p53 core domain. PNAS 94, 14338-14342 (1997)) to determine the temperature at the inflection point of the curve (T1/2).

[4] = Analytical size exclusion chromatography of wild type and mutant PD-L1 proteins; assay type: physicochemical; conditions: qualitative appearance of the PD-L1 antigen protein on size exclusion chromatography

In the case of `O=P1(N(CCCl)CCCl)NCCCO1` (centres unmarked) [CPA, cyclophosphamide], the “p15E-reactive CD8+ T cells (ELISPOT), single agent” value [1] is reported as about 100 spots.

For `Nc1ccn([C@@H]2O[C@H](CO)[C@@H](O)C2(F)F)c(=O)n1` [GEM, Gemcitabine], the “survival time, monotherapy” value [2] was “failed to extend survival time”.

With “A51Q: PD-L1 point mutant antigen expressed in HEK cells [Antibody A51Q]” the T1/2 [3] was 57.3 +/− 0.6 °C.

Work on “A52R: PD-L1 point mutant antigen expressed in HEK cells [Antibody A52R]” yielded a T1/2 [3] of 55.2 °C.

For “A109E: PD-L1 point mutant antigen expressed in HEK cells [Antibody A109E]”, the T1/2 [3] was 54.0 °C.

In the case of “A121R: PD-L1 point mutant antigen expressed in HEK cells [Antibody A121R]”, the T1/2 [3] is reported as 54.0 +/− 0.5 °C.

In the case of “D26A: PD-L1 point mutant antigen expressed in HEK cells [Antibody D26A]”, the T1/2 [3] is reported as 52.8 +/− 0.2 °C.

With “D49A: PD-L1 point mutant antigen expressed in HEK cells [Antibody D49A]” the T1/2 [3] was “BP (>49) ° C”.

In the case of “D61A: PD-L1 point mutant antigen expressed in HEK cells [Antibody D61A]”, the T1/2 [3] is reported as 52.0 °C.

For “D73A: PD-L1 point mutant antigen expressed in HEK cells [Antibody D73A]”, the T1/2 [3] was 53.5 +/− 2.1 °C.

For “E45A: PD-L1 point mutant antigen expressed in HEK cells [Antibody E45A]”, the T1/2 [3] was 58.0 °C.

With “E58A: PD-L1 point mutant antigen expressed in HEK cells [Antibody E58A]” the T1/2 [3] was 54.6 +/− 0.6 °C.

For “E60A: PD-L1 point mutant antigen expressed in HEK cells [Antibody E60A]”, the T1/2 [3] was 50.4 °C.

With “E71A: PD-L1 point mutant antigen expressed in HEK cells [Antibody E71A]” the T1/2 [3] was 52.8 +/− 1.5 °C.

For “H78A: PD-L1 point mutant antigen expressed in HEK cells [Antibody H78A]”, the T1/2 [3] was 56.6 +/− 0.6 °C.

With “I54A: PD-L1 point mutant antigen expressed in HEK cells [Antibody I54A]” the T1/2 [3] was 57.2 +/− 2.5 °C.

“I54K: PD-L1 point mutant antigen expressed in HEK cells [Antibody I54K]” showed a T1/2 [3] of 57.2 °C.

Compound “K46A: PD-L1 point mutant antigen expressed in HEK cells [Antibody K46A]” has a T1/2 [3] of 51.6 °C.

With “K75A: PD-L1 point mutant antigen expressed in HEK cells [Antibody K75A]” the T1/2 [3] was 57.7 +/− 1.8 °C.

With “K105A: PD-L1 point mutant antigen expressed in HEK cells [Antibody K105A]” the T1/2 [3] was 57.0 +/− 1.5 °C.

In the case of “K124A: PD-L1 point mutant antigen expressed in HEK cells [Antibody K124A]”, the T1/2 [3] is reported as 53.1 +/− 0.6 °C.

For “K129A: PD-L1 point mutant antigen expressed in HEK cells [Antibody K129A]”, the T1/2 [3] was 50.8 +/− 1.2 °C.

For “L27A: PD-L1 point mutant antigen expressed in HEK cells [Antibody L27A]”, the T1/2 [3] was 51.7 +/− 0.5 °C.

For “M115A: PD-L1 point mutant antigen expressed in HEK cells [Antibody M115A]”, the T1/2 [3] was 51.4 +/− 0.1 °C.

With “Q107A: PD-L1 point mutant antigen expressed in HEK cells [Antibody Q107A]” the T1/2 [3] was 58.6 +/− 2.0 °C and the SEC [4] was “M/T”.

In the case of “R82A: PD-L1 point mutant antigen expressed in HEK cells [Antibody R82A]”, the T1/2 [3] is reported as 51.2 +/− 0.4 °C.

Work on “R113A: PD-L1 point mutant antigen expressed in HEK cells [Antibody R113A]” yielded a T1/2 [3] of 56.7 °C.

With “R125A: PD-L1 point mutant antigen expressed in HEK cells [Antibody R125A]” the T1/2 [3] was 51.8 +/− 0.2 °C.

In the case of “S79A: PD-L1 point mutant antigen expressed in HEK cells [Antibody S79A]”, the T1/2 [3] is reported as 56.3 +/− 0.9 °C.

With “S79E: PD-L1 point mutant antigen expressed in HEK cells [Antibody S79E]” the T1/2 [3] was 60.0 °C.

“S80A: PD-L1 point mutant antigen expressed in HEK cells [Antibody S80A]” showed a T1/2 [3] of 57.0 °C.

For “S80E: PD-L1 point mutant antigen expressed in HEK cells [Antibody S80E]”, the T1/2 [3] was 56.8 +/− 4.5 °C.

In the case of “S117A: PD-L1 point mutant antigen expressed in HEK cells [Antibody S117A]”, the T1/2 [3] is reported as 52.7 +/− 0.3 °C.

With “T20A: PD-L1 point mutant antigen expressed in HEK cells [Antibody T20A]” the T1/2 [3] was 52.5 +/− 0.2 °C.

For “T127A: PD-L1 point mutant antigen expressed in HEK cells [Antibody T127A]”, the T1/2 [3] was 51.4 +/− 0.0 °C.

Compound “T127K: PD-L1 point mutant antigen expressed in HEK cells [Antibody T127K]” has a T1/2 [3] of 54.0 °C.

In the case of “V68R: PD-L1 point mutant antigen expressed in HEK cells [Antibody V68R]”, the T1/2 [3] is reported as 56.0 °C and the SEC [4] is reported as “M/T”.

Compound “V76A: PD-L1 point mutant antigen expressed in HEK cells [Antibody V76A]” has a T1/2 [3] of 55.7 °C.

For “V111A: PD-L1 point mutant antigen expressed in HEK cells [Antibody V111A]”, the T1/2 [3] was 50.2 +/− 0.2 °C.

For “V111E: PD-L1 point mutant antigen expressed in HEK cells [Antibody V111E]”, the T1/2 [3] was 51.6 +/− 0.0 °C.

With “Y56A: PD-L1 point mutant antigen expressed in HEK cells [Antibody Y56A]” the T1/2 [3] was 57.5 +/− 0.7 °C.

For “Y56K: PD-L1 point mutant antigen expressed in HEK cells [Antibody Y56K]”, the T1/2 [3] was 55.4 +/− 1.3 °C.
